# Target: ErbB1-mCitrine (UniProt P00533)
# Test: FRET or BRET; confocal time-domain FLIM-FRET in live COS-7 cells at 37°C; donor ErbB1-mCitrine, acceptor an mCherry-labeled PTP1B chimera; cells starved overnight, recorded 2 min before and 14 min after EGF (100 ng/mL)
row,average donor fluorescence lifetime (donor-only control 3.02 ns),Substance
1,2.89 ns,mCherry-PTP1B^D/A-ER (enzyme)
2,2.96 ns,mCherry-PTP1B^D/A-OMM (enzyme)
